# B1: Forkhead box protein P3 (Mus musculus), Q99JB6 (parent)
# chain: MPNPRPAKPMAPSLALGPSPGVLPSWKTAPKGSELLGTRGSGGPFQGRDLRSGAHTSSSLNPLPPSQLQLPTVPLVMVAPSGARLGPSPHLQALLQDRPHFMHQLSTVDAHAQTPVLQVRPLDNPAMISLPPPSAATGVFSLKARPGLPPGINVASLEWVSREPALLCTFPRSGTPRKDSNLLAAPQGSYPLLANGVCKWPGCEKVFEEPEEFLKHCQADHLLDEKGKAQCLLQREVVQSLEQQLELEKEKLGAMQAHLAGKMALAKAPSVASMDKSSCCIVATSTQGSVLPAWSAPREAPDGGLFAVRRHLWGSHGNSSFPEFFHNMDYFKYHNMRPPFTYATLIRWAILEAPERQRTLNEIYHWFTRMFAYFRNHPATWKNAIRHNLSLHKCFVRVESEKGAVWTVDEFEFRKKRSQRPNKCSNPCP
# Variants of: B1
# Settings: with runx1_mouse Runx1, Q03347
# Chain of runx1_mouse Runx1, Q03347 (Q03347 whole entry): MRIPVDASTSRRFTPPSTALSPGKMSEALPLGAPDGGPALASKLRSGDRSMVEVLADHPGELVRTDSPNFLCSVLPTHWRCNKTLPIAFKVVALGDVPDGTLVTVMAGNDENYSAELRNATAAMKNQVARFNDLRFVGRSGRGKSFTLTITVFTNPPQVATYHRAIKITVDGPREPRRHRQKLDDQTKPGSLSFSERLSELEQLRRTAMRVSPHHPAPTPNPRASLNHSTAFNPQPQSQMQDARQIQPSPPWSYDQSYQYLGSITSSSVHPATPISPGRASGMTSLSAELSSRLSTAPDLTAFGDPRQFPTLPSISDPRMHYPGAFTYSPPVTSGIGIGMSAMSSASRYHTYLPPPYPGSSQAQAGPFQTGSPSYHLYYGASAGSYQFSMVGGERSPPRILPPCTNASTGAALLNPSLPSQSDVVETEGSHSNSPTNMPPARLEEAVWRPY
row,effect of a mutation on the interaction,Variant
1,decreasing interaction strength,D329V;Y330H
2,disrupting interaction strength,D329V;Y330H;K332L

# — IntAct's records for PubMed 17377532
